Experimental data published in US20260275312, “CRISPR NUCLEASE POLYPEPTIDES AND GENE EDITING SYSTEMS COMPRISING SUCH” (ARBOR BIOTECHNOLOGIES, INC., published 2026).
Positions count from the first letter of the chain named.

Legend:
Nuclease S D179R = molecular target: T1, Nuclease S D179R (synthetic construct, D179R); assay: cell_activity; HEK293T; PAM AACC; conditions: tags: N-term SV40 NLS, XTEN linker + C-term nucleoplasmin NLS
T1 chain: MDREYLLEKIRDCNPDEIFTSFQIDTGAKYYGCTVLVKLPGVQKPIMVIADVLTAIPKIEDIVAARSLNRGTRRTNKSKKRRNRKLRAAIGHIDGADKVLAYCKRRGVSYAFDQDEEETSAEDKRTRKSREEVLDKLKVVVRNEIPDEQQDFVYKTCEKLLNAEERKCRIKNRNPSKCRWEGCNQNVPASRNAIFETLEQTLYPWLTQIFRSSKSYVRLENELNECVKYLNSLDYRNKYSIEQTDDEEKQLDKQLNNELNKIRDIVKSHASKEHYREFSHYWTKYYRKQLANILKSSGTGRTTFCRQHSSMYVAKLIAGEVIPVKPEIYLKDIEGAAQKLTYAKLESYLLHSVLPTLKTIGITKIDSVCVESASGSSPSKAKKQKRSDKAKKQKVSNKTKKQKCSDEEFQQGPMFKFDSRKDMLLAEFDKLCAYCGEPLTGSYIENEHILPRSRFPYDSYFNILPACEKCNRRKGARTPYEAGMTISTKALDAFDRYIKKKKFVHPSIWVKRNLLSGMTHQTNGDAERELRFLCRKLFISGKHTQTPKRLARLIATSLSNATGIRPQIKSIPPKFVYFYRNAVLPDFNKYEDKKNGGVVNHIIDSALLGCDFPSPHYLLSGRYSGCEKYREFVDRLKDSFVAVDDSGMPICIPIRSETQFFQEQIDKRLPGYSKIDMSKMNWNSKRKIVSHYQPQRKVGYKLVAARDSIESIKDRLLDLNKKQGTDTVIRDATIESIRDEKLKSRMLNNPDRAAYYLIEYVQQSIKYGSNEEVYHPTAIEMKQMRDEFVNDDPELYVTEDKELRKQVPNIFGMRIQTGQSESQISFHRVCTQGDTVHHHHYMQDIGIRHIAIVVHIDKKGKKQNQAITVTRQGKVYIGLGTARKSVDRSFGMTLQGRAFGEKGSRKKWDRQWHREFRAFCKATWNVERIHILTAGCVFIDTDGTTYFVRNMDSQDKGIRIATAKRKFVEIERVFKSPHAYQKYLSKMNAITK
Procedure: (§1) HEK293T cells were transfected with plasmids expressing the Nuclease S polypeptides and the gRNAs provided herein following the methods provided in Example 1 above. Gene editing efficiencies were determined by NGS following the methods also provided in Example 1. The NGS results were analyzed also following the methods provided in Example 1 above.
(§2) For each target, indel ratios, referring to the percentage of NGS reads comprising indels, were calculated for the reference and for each variant. The indel ratios used for fold change calculations were the average of two technical replicates. To then calculate fold change in indel ratios at a particular target, the indel ratio for each variant was divided by the indel ratio for the reference. […] Numbering is relative to the reference nuclease of SEQ ID NO: 49 (i.e., without an NLS). […] The average fold change in indel ratio for the D844R variant at all targets was 5.27 times that of the indel ratio for the reference at all targets.

Nuclease S D844R = molecular target: T2, Nuclease S D844R (synthetic construct, D844R); assay: cell_activity; HEK293T; PAM AACC; conditions: tags: N-term SV40 NLS, XTEN linker + C-term nucleoplasmin NLS
T2 chain: T1 chain with R179D, D844R
Procedure: as §1, §2

B1: S AAVS1-T7 RNA guide ; AAVS1-T7 target (S) (ssRNA ; dsDNA)
RNA: GGCUAUAAUCCAUGCUGACCGUUGUAUUCGGAUGGGAGUAAAAGGUUGAGUACACCUGGAAACAAAACGACAUAAAGGUGUUCUCCCAUCUGUGUACAAAGAGCAGAUAUAUGAGUUGAUAAGUAAUAUGUUGCACGUAUGGACUUUGACAGUCUGUACCUCUGCGUGAAAGACAUAUUGCGUUAUUCAUAUAUCUGUGAGUCUGUUCUAAAUUUAAAGGUUUAGGGAA
DNA 1: GGCTATAATCCATGCTGACC
DNA 2: GGTCAGCATGGATTATAGCC
- fold change in indel ratio vs reference (Nuclease S D179R): 6.38 fold indel vs reference
- fold change in indel ratio vs reference (Nuclease S D844R): 6.37 fold indel vs reference
